Experimental data taken from PMC7300195 (Frontiers in Immunology, 2020).

Legend:
Test in all cases: BLI
Settings in all cases: both partners purified
[1] = target: NiV G trimer: NiV G head domain residues 172-602 coupled to an N-terminal foldon domain (Nipah virus, Malaysia (AAK50545.1), UniProt Q9IH62)
[2] = target: T1, NiV G ferritin 24-mer nanoparticle: NiV G ectodomain residues 172-602 linked to the C-terminus of ferritin … (Nipah virus, Malaysia (AAK50545.1), UniProt Q9IH62)
T1 construct: copies: 24

[3] = target: hexameric NiV G: two G ectodomain headgroups linked by a foldon trimerization domain via short glycine linkers (Nipah virus, Malaysia (AAK50545.1), UniProt Q9IH62)

Measured: binding result

B1: m102.4 monoclonal antibody (HeV G-specific antibody), human IgG1/kappa (antibody, V domains shown)
VH: EVQVIQSGADVKKPGSSVKVSCKSSGGTFSKYAINWVRQAPGQGLEWMGGIIPILGIANYAQKFQGRVTITTDESTSTAYMELSSLRSEDTAVYYCARGWGREQLAPHPSQYYYYYYGMDVWGQGTTVTVSS
VL: EIVMTQSPGTLSLAPGERATLSCWASQSVRNNYLAWYQQKPGQAPRLVIYNGSTRATGIPDRFSGSGSGTDFTLTISRLDPEDFAVYYCQQYGNSRRVTFGGGTKVEIK
binds: [1] | [2] | [3]
